In publication PMC4823042, “Transcription factor LSF (TFCP2) inhibits melanoma growth”:

Target: T1, LSF (Late SV40 factor 3) (human, UniProt Q12800 1-502)
T1 sequence: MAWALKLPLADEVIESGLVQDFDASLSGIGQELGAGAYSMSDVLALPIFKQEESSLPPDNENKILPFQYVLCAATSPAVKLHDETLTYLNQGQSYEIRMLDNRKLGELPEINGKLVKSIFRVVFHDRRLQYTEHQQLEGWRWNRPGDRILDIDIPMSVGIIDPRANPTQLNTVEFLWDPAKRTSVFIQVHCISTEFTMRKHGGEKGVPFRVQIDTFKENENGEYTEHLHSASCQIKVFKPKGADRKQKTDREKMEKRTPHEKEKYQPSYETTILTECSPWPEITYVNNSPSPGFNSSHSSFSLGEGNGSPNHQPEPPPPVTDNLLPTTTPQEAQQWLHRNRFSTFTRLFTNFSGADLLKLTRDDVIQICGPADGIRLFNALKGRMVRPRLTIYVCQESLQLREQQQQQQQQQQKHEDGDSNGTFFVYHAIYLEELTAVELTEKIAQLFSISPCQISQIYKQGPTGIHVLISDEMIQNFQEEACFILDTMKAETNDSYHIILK
Assay: EMSA; LightShift Chemiluminescent EMSA kit per manufacturer; 7% PAGE in 0.5x TBE; binding buffer, pH and temperature not stated
Settings: protein: ivt, tags: FLAG, chain copies: 4, label: biotin end label

[1] = 5' overhangs 4 nt on both strands

B1: p21 promoter #1 (dsDNA)
DNA 1: GCACGCGAGGTTCCGGGACCGGCTGGCCTGC
DNA 2: TCCAGCAGGCCAGCCGGTCCCGGAACCTCGC
- binding result [1]: binds

B2: p21 promoter #1 mutant (dsDNA)
DNA 1: GCACGCGAGGTTACGTGACCGTATGTCCTGC
DNA 2: TCCAGCAGGACATACGGTCACGTAACCTCGC
- binding result [1]: no binding

B3: p21 promoter #4 (dsDNA)
DNA 1: GCCTCCTTGAGGCGGGCCCGGGCGGGGCGGT
DNA 2: TACAACCGCCCCGCCCGGGCCCGCCTCAAGG
- binding result [1]: binds

B4: p21 promoter #4 mutant (dsDNA)
DNA 1: GCCTCCTTGAGTAGGTCCCGGTAGGTGCGGT
DNA 2: TACAACCGCACCTACCGGGACCTACTCAAGG
- binding result [1]: no binding

B5: p21 promoter #3 (dsDNA)
DNA 1: GCTGGCTCGGCGCTGGGCAGCCAGGAGCCT
DNA 2: GCCCAGGCTCCTGGCTGCCCAGCGCCGAGCC
- binding result (5' overhangs 3 nt (top) and 4 nt (bottom)): binds

B6: p21 promoter #2 (dsDNA)
DNA 1: GCTGGAACTCGGCCAGGCTCAGCTGGCTCGG
DNA 2: AGCGCCGAGCCAGCTGAGCCTGGCCGAGTTC
- binding result [1]: binds
